Reference: the nanobody polyreactivity screen of Harvey et al. (2022)

Experiment: yeast display, Sf9 membrane polyspecificity reagent, FACS + sequencing; frameworks hold sequencing errors
Procedure, shortened: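 Genes from sorted yeast were amplified by colony PCR, read by MiSeq 2 × 250 sequencing and filtered on CDR length. These cells carried a synthetic nanobody library in Saccharomyces cerevisiae BJ5465 and were sorted by FACS into low and high (top ~1%) gates on anti-HA and streptavidin fluorescence. Polyreactivity is labelled according to the gate of origin.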

Sequence	polyreactivity (PSR sort gate)
QQLQESGGGLVQAGGSLRLSCAASGSISGSVLMGLYRQAPGKEREFVASISLGGNTNYADSVKGRFTISRENGKITVFLQMNSLKPEVAAVYYCAAYISLFETHPYWGQGTQVTVRS	high polyreactivity
QVQLVESGGGLVQAGGSLRLSCAASGRIFSRNTMGWYRQAPGKEREFVAAISQSGGRTYYADSVKGRFTISRDNAKNTVYLQMNSLKPEDTAVYYCAAPSQSRGYYYWGQGTQVTVSS	high polyreactivity
QVQLEESVGGLDQAVGSLRLSCAASGFTFNRYTMGWYRQAPGKEREFVASITRSGGSTYYADSVKGRFTISRDNAKNTVYLQMNSLTPEDTAVYYCAPVYQYSSRYDHWGQGTQVTVSS	high polyreactivity
QVQLVESGGGLVQAGGSLRLSCAASGSIFIANAMGWYRQAPGKERELVASISSGGSTNYADSVKGRFTISRDNAKNTVYLQMNSLKPEDTAVYYCAADGTDDYGGDFYLWVDYWGQGTQVTVSS	low polyreactivity
QVQLVESGGGLDQAGGSLRLSCAASGFTFSYNAMGWYRQAPGKERELVASISWRGGGTYYADSVKGRFTISRDNAKNTVYLQMNSLKPEDTAVYYCNAGLTDYIGDPSEVDYWGQGTQVTVSS	low polyreactivity
QVQLVESGGGLVQAGGSLRLSCAASGFIFSHYAMGWYRQAPGKERELVAAISWSGDSTYYADSVKGRFTLSRDNAKNTVDLQMNSLKPEDTAVYYCNAVYFWVRYLKFLEFGYWGQGTQVTVSS	high polyreactivity
QVQLVESGGGLVQAGGSLRLSCAASGFIFEYYAMGWYRQAPGKERELVAAISRGGRTNYADSVKGRFTISRDNAKNTVYLQMNSLKPEDTAVYYCARDYTFYRQVRKYGYWGQGTQVTVSS	high polyreactivity
QVQLVESRGGLVQAGGSLRLSYAASGYFFRYNSMGWYRQAPGTERELVAAMSRGGTTYYADSVTGRFTISRDNAMNTVYLQMNSLKPEDTEVYYCAAGRKVQSRRYGYWGQGTQVTVSS	high polyreactivity
QVQLVESRGGLVQAGGSLRLSFPDSGSTYVKNAMGWYRHAPGKERELVARISYSGGSTYADSVKGRFTISRDNAKNTVYLQMNSLKPEDSAVYYCNARTHNWWDGDGVYSQSLYDYWGQGTQVTVSS	low polyreactivity
QVQLVESGGGFVQAGGSLRLSCAASGSIFDQYAMGWSRQAPGKERELVAGISSSGSTYADSVKGRFTISRDNAKNTVYLQMNSLKPEDTAVYSCAKDYGVLGGGTGSDRMDYWGQGSQVTVSS	low polyreactivity
QVQLVESGGGLVQAGGSLRLRCAASGRTFSSNAMGWYRQAPGKERELVASISRRGGSTYYADSVKGRFTISRDNAKNSVYVQMNSLKPEDTAVYDCAARQSGQILGYYSRYDYWGQGTQVTVSS	high polyreactivity
QVQLVESGGGLVQAGGSLRLSCAASGRNFGAYTMGWYRQAPGKESELVAAISSSGGRTYYADSVKGRYTISRDNAKNTVYLQMNSLKPEDTAVYYCAASYSGRKDRYPHYDYWGQGTQVTVSS	low polyreactivity
QVQLVESGGGLVQAGGSLRLSCAASGIFVSDAMGWYSQAPGKVRELVAAIRYSGDSTYYADSVKGRFTISRDNAKNTVYLQMNSLKPEDTAVYYCAATKGWTRYEYWGQGTQVTVSS	low polyreactivity
QVQLVESGGGLVQAGGSLRLSCAASGITFGYYAMGWYRQAPGKERELVASISWSGDSTYYADSVKGRFTISRDNAKNTVYLQMNSLKPEDTAVYYCNRGSSWEYGAEYNYWGQGTQETVSS	low polyreactivity
QDQHVESGGGLVQAGGSLRLSCAASGRTFSYYTMGWYRQAPGKERELVAAISRRGGNTYYADSVKGRFTISRDNAKNTVYLQMNSLKPADTAVYYCAALSYAKHYDPSGYDYWGQGTQVTVSS	high polyreactivity
QVQLVESGGGLVQAGGSLRLSCAASGSTFRGYALGWYRQAPGKERELVATISGSDGTTYYADSVKGRFTISRDNAKNTVYLQMNSLKPEDTAVYYCAAGETFEMYYWGQGTQVTVSS	low polyreactivity
QVQLVESGGGLVQAGGSLRLSCAASGITLAGYVMGWYRQAPGKERELVADISSSGDSTYYADSVKGRFTISRDNAKNTVYLQMNSLKPEDTAVYYCADEEIIPLIYKGYPFDYWGQGTQVTVSS	low polyreactivity
